# Patent US5965697, “Disaggregated mutant human RANTES” (British Biotech Pharmaceuticals Limited, dated 1999)
# Changes are numbered by the printed parent chain. Several values for one entry are separate records, joined by “and”; a condition that tells them apart may be missing. Identical values can stand only once.
# B1: wild-type human RANTES (hRANTES) (ligand)
# chain: SPYSSDTTPCCFAYIARPLPRAHIKEYFYTSGKCSNPAVVFVTRKNRQVCANPEKKWVREYINSLEMS
# B2: hRANTES E26>A E66>S (ligand)
# chain: B1 chain with E26A, E66S
# B3: hRANTES E26>A (ligand)
# chain: B1 chain with E26A
# B4: hRANTES E66>S (ligand)
# chain: B1 chain with E66S
# Assays:
# [1] = molecular target: wild-type human RANTES (hRANTES) (human); test: sedimentation equilibrium AUC in PBS, 0.1 mg/ml; self-association (monomer 7850 Da)
# [2] = molecular target: T-cell receptor complex (tyrosine kinase pathway) on CD3+ Jurkat cells and cultured human T lymphocytes (human); details: scale: % of cells expressing the cell surface marker
# [3] = molecular target: cell-surface proteoglycans; test: radioligand binding, 0.125 nM 125I-hRANTES on CHO cells, filter harvest
# [4] = molecular target: the molecule itself; test: sedimentation equilibrium AUC in PBS, 0.5 mg/ml; self-association
# Procedure: Mutagenesis of pERM1 was performed according to the method of Kunkel et al., (Methods in Enzymology, 154: 367–382; 1987). The oligonucleotides BB-35875 (SEQ ID NO. 14; 5'-[…] […] GTGG-3') and BB-37015 (SEQ ID No. 15; 5'-[…] ACATTGA-CAA […]-3') were used to construct the hRANTES Glu26>Ala and Glu66>Ser variant genes respectively. A combination of both BB-35875 and BB-37015 was used to […]. The samples were spun at 15,000 r.p.m., 25° C. for 18 hours to reach equilibrium. Final solute distributions were recorded at 235 nm, 280 nm and 295 nm as a function of radius. The scan was repeated after a further three hours of centrifugation to confirm that equilibrium had been achieved. The final solute distribution ASCII data were captured and the Microcal Origin software for the Beckman XLA analytical ultracentrifuge was used to fit the data to a model assuming a single ideal species (Ideal1) to provide an estimate of the weight average molecular weight.
# [5] = molecular target: G-protein coupled receptors (GPCRs) through which hRANTES acts
# [6] = molecular target: cell-surface proteoglycans; test: radioligand binding, 0.2 nM 125I-hRANTES E66>S on CHO cells, filter harvest
# [7] = molecular target: T-cell receptor complex (tyrosine kinase pathway) on CD3+ Jurkat cells and cultured human T lymphocytes (human)
Molecule,"% of cells expressing the cell surface marker (CD69, CD11b, CD11c) on cultured human T lymphocytes, 5 µM [2]",Average molecular weight by AUC (Da) [4] [Da],also measured
wild-type human RANTES (hRANTES) (ligand),–,–,Average molecular weight by AUC (Da) [1]: > 160000 Da
B1,99.1,–,total counts bound [3]: 5730 cpm
B2,–,15000,–
B3,–,33000,IC50 of p24 antigen production by PBMC infected with HIV-1 RR [5]: 28 nM and 0.22 µg/ml
B4,0.39,14000,total counts bound [6]: 18300 cpm; calcium mobilisation in CD3+ Jurkat cells [7]: 200 fold
